Assay: soluble on expression in E. coli; label from the status in PepcDB or PDB records

Row | Sequence | soluble on expression in E. coli
1 | MNNENMLSDNSTQTSQINETIDQPIIYILDTNILLHEPFAFLSFKEHDVVVPMTVLEELDSIKDRRKDVSRDARVAIRALEDTLRDASPEQVLAGVKLPQNDDQHPSGSLAIINDYALEKTAHTLSFNENDNRIINAALHIQKKTPNKKIVLVTKDINMRLKAKGAGLAHVEDYRTDQLIDDIQFLTKGYHKFEGDFWQQIQSVDSETEGRNTTHYVSRETVPSTYINEYLLDDSGTFAGKVTGWDDDKLAILDLGRERLLAKNAWGIHPKNIYQGMAMDALLDPTIDLVILTGPAGSGKTLLALASALEQVIERGLYDKIIVTRSTPEIAESIGFLPGTEEEKMAPWLAAITDSLEVLHQQDESMHGSLNYIMDKANIQFKSVNFMRGRSIQNALVLLDECQNLTAAQLKTIITRCGEGTKLVCSGNLAQIDSNYLTAVTSGLTYIVERFKDFPGSATVNLNGVVRSRLASFAEENL | soluble
2 | MNNFTMPDKKYFLFAARRADDQLILVVPKSGERFLMNEELLRRDYNVQLGDFLHCKINRSKELYDISKTKHTANISTVVNGDEAIIENLRADLVSSDELLLFQSQLFDDIRCWQSDQPIGRYYIKMRLFPTSREMSGRMIHYEVVKITGSVKSIELNKQQGNFQQNIDSGYSAASEKTESSAGFSQSPAAGLPSPQNLIYPAGSKKIVSQQGTQVVGPGCPLVKKEETPANKIMGTGFPKSTKREENVFGSELLQQKKNNEKPGSTVGKGFTTSQTIGEKQRAVVTSIDAKRPGTYYLWNLDSKTEGLLKSTTPLELGHQFAGIFVNQENGKCFCKEYIGEIERVLEGKVNDTNKVNLTVKLLDFQPAGVNRRRASGTAKYIGDVLEGNTEDTKLTIECIGKKVNIERRKFGEKDFVWMVTEIRNCSQYDQKIF | not soluble
3 | MNNHIEALSYYLGAFVDELTLLNVCDVVISPGSRSTPIALLMEQHEGMNTYLHVDERSAGFFALGIAKAKKRPVALLCTSGTAAANYYPAVCEAFHSRVPLIVLTADRPHELRDVGAPQAMNQINLYGTFVKQFTEMALPEASEAMYHYARLTTQRMIASACLAPQGPVHLNFPVREPLIPDFSLESLWDKGRGEYTGVVQQGNAVMPSEYVDSLVGRLSHMEKGLIICGDDSHSEIAAFATQLAEKTGYPILADPLSNIRSGHHDKTMVIDCYDTFLRNELLKETWKPDVLIRFGGMPVSKALTQFIKKQTKAVHIVVDESGQWRDPALVATEVVQASDIAFCSALIEKMPVMKKNDWFRMWQHINEKTKETLREMETYDTAFEGRVITDIVRVLPEGATLFASNSMPIRDTDSFFFTSDKNIQVMANRGVNGIDGIISTALGASMICDPLVLVIGDLSFYHDLNGLLAAKLHELNITIVVVNNDGGGIFSFLPQYEKKEHFESLFGTPIGLDYEHVVTMYGGSFSRVNGWEQFREEVQKGVTTEGLHVVEICTNRDENLTLHRTLWAKTQDVITTSLQGESK | soluble
4 | MNNIAAPDQSFNPAHVLSFDLETTSANPFEARIVTSALVRIDSSGAHPVELLADPGVEIPEAASKVHGISTEYAREHGEPHEAVLKRTVDEIYAAWEEGFTLVVYNAPYDLTVLRQLTGDFVVKGPVYDPYLIDRIMDRFRKGKRTLTDLCSVYGVRMDNAHEATSDALAAARIAWMQAKKRFKDDLAAYSHDELMEYQAVQYYELQKDMKKYLDGLGRDTSTVNFGWPMQNSR | not soluble
5 | MNNMKKYLSLCIMLLCLCSTVMAQQEKVVVKGVVTDEAKEPLIGVNVTVKDMPGLGSITDMNGHYSITMEPYRQLVFTYIGYESKEVMVKEQRTINVVMKESVTRAVDEVVITGTGVQRKLTQTGAITTVDVGELKRNPSSSIVNALAGNVPGIMARQTSGQPGKNISEFWIRGISTFGANSSAYVLVDGFERSMDEINIEDIETFTVLKDASATAIYGSKGANGVVLITTKRGKAGKIKIDAKVETTYNTRTVLQSSKTDLLMPA | not soluble
6 | MNNNVITRFAPSPTGFLHIGSARTALFNYLFARHHNGKFLLRIEDTDKERSTKEAVEAIFSGLKWLGLDWNGEVIFQSKRNNLYKEAALKLLQNGKAYYCFTRQEEIERQRQQALENKQHFIFNSEWRDKDPSIYPTDIKPVIRLKTPREGSITIHDTLQGEVVIENSHIDDMVLLRADGTATYMLAVVVDDHDMGITHIIRGDDHLTNTARQLAIYQAFGYAVPSMTHIPLIHGADGAKLSKRHGALGIEAYKDMGYLPESLCNYLLRLGWSHGDDEIISMTQAIDWFNLDSLGKSPSKLDFAKMNSLNAHYLRMLDNDSLTSKTVEILEQNYNTLLRHLPYREEFGGNTERSTAAYIDIREDASTGLTYKLPLAVELPKKFKISEQEIGYIKQAMPSLLVRSETLLELTRLAQIYLVDSPIIYSQDSKEIIENCDKNLIKQIIENLSELEQFDKESVQNKFKEIAAANDLKLNDIMKPVRALITGMTASPSIFEIAEILGKENILKRLKII | soluble
7 | MNNPAMTIKGEQAKKQLIAAALAQFGEYGMNATTREIAAQAGQNIAAITYYFGSKEDLYLACAQWIADFIGEQFRPHAEEAERLFAQPQPDRAAIRELILRACRNMIKLLTQDDTVNLSKFISREQLSPTAAYHLVHEQVISPLHSHLTRLIAAWTGCDANDTRMILHTHALIGEILAFRLGKETILLRTGWTAFDEEKTELINQTVTCHIDLILQGLSQRSL | soluble
8 | MNNPDLPYRQALECLSQKQYNFTEVRRLLTEAFSAGHPAAAFELAKHLMDADSPYQDREQGMEMLRIAAEQGHPYARYNLAYIQELEGAPPETLIPLYRPLAEEGLPEAQVRLMYLLYASRHFEEALEWAKTSAKNNNPHGQYLLAQYCRYGTPPDFETAHLLYRKSAAQGLPEAHWQLGLQYRFGQGTKVDTAQAVNHLRAAAQQGYIPAYTPLAELILPTAPDEAVHWFQQAAQENDPDAHAALADIYLQGKHLERNHKLALHHAEAAAAERHPEGLRILGDICRYGLGIAPDTEKARHYYRQAAEAGSLSAYQKLISDSALNHPDQYGGIKDSAIRRQRAERLYQKAQALHYGLQCAPEYAAALKLYTEAAELGHSKAQTNLGSMYYFGQGMTADYNEARKWFEKAAAKKDSMAFYNLACIHYSGHGVEPDKEKACRYLQEAINNGYGQKSVLQELLQQWQNAV | not soluble
9 | MNNQQAAIASARSRMAAGGQPQGATPGQPDQNFDYMFKLLIIGNSSVGKTSFLFRYCDDSFTSAFVSTVGIDFKVKTVFRGDKRVKLQIWDTAGQERYRTITTAYYRGAMGFILMYDITNEESFNSVQDWCTQIKTYSWENAQVVLVGNKCDMDSERVVSMDRGRQLADQLGLEFFETSAKENINVKAVFEKLVEIICDKMAESLDKDPQQQPKGQKLEANPTQKPAQQQCNC | not soluble
10 | MNNQTILIIGAAGNNGMATIESLVSKQPKDTIVAAVRSTDKATLLKKKFPSIKTVIIDLDKPETLTAAYEGVTKVFMIPGNVEEREQHAKNAIDAAVQAGTVKQFLFYSVVGAEYEAILFAQQFRAGEKYLEQSGLNWTHLRTIFFQDNFFGWADGVKQGGLYFGIREGSFAPLNVADIGEMAANILTTSGHEHKAYNITGSELLSGEEMAKVFTDVTGKTVAYISPTKQQTLDSLLSTGWPQWQAEGMLELFEVFATNQAAVVSPDGEQLLGRPLTTLKDFIASNKAAFV | not soluble
11 | MNPKSSLADGAHIGNYQIVKTLGEGSFGKVKLAYHTTTGQKVALKIINKKVLAKSDMQGRIEREISYLRLLRHPHIIKLYDVIKSKDEIIMVIEYAGNELFDYIVQRDKMSEQEARRFFQQIISAVEYCHRHKIVHRDLKPENLLLDEHLNVKIADFGLSNIMTDGNFLKTSCGSPNYAAPEVISGKLYAGPEVDVWSCGVILYVMLCRRLPFDDESIPVLFKNISNGVYTLPKFLSPGAAGLIKRMLIVNPLNRISIHEIMQDDWFKVDLPEYLLEHHHHHH | soluble
12 | MNPLAQKLNDEIKQSSPEVLDMMSQLGKDMFYPKGILSQSAEAKRTTYNATIGMATKKEGKMYANSLNQMFNDLTPDEIFPYAPPQGVEELRDLWQKKMLKENPDLKSKSISRPIVTNALTHGLSLVADLFVDTDDTVLLPTHNWGNYKLVFSTRHGAHIDTYSIFDNSGHFTTSELVKTLKEYKKDKVIIILNYPNNPTGYTPNKEEVNTIVNAIEELANKGTKVVTVVDDAYYGLFYEEVYQQSIFTALTQVKSSNLLPVRLDGATKEFFSWGFRVGFMTFGIDHETLKNALEAKVKGLIRSNISSSPLPSQSAIKHVLKHHEQFDKEIDQNINILKERYEVTKQVVYDNKYAKYWQAYDFNSGYFMSLKLNQVDPEELREHLINNYSIGIIALNSTDIRIAFSCVEKEDIPYVFESIANAIDDIK | not soluble
13 | MNPQTDNVFYATNAFTGEALPLAFPVHTEVEVNQAATAAAKVARDFRRLNNSKRASLLRTIASELEARSDDIIARAHLETALPEVRLTGEIARTANQLRLFADVVNSGSYHQAILDTPNPTRAPLPKPDIRRQQIALGPVAVFGASNFPLAFSAAGGDTASALAAGCPVIVKGHTAHPGTSQIVAECIEQALKQEQLPQAIFTLLQGNQRALGQALVSHPEIKAVGFTGSVGGGRALFNLAHERPEPIPFYGELGAINPTFIFPSAMRAKADLADQFVASMTMGCGQFCTKPGVVFALNTPETQAFIETAQSLIRQQSPSTLLTPGIRDSYQSQVVSRGSDDGIDVTFSQAESPCVASALFVTSSENWRKHPAWEEEIFGPQSLIVVCENVADMLSLSEMLAGSLTATIHATEEDYPQVSQLIPRLEEIAGRLVFNGWPTGVEVGYAMVHGGPYPASTHSASTSVGAEAIHRWLRPVAYQALPESLLPDSLKAENPLEIARAVDGKAAHS | soluble
14 | MNPTVLVAEDDPVQRLLLRRALEPLGVEVRLARHGREALDLALEAPPHLVLTDLHMPHMDGLELTRRLKALDPLLPVLLFTADRDHETRLRGLEAGADDFLNRPFDLTELRLRVKGHLERRRLQEKLEDLERALLALVRAVEAKDPYTAGHAERVARYALLGARELGAGEEELRDLHMGALLHDVGKIGLPDRILRGEAPLSAADWRLIQAHPVKGDEILTPLKAHPRLRPYVRWHHEKLDGSGYPDGLTEIPLLVQVLSAADMYDALTSRRTYREAVKPEEALEALEREAREGRLALEAVRALRSGLRRGASEAKGHVLHL | soluble

— the DeepSol protein solubility set
